Results: US9290745B2, “Luciferase biosensor” (PROMEGA CORPORATION, priority 2003, dated 2016)
“Also recorded” adds a separate entry of the source.

Columns and labels:
[1] = target: cyclic AMP dependent protein kinase catalytic subunit (Homo sapiens, UniProt P17612); conditions: cited from earlier work
caspase-3 [2] = target: T1, caspase-3 (Homo sapiens, UniProt P42574); format: biochemical
T1 construct: purchased BioMol
T1 sequence (P42574 29-175 limits assumed): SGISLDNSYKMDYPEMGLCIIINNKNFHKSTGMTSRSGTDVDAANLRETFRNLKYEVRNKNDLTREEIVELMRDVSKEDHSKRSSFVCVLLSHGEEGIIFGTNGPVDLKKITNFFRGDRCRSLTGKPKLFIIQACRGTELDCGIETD
T1 sequence (P42574 176-277 limits assumed): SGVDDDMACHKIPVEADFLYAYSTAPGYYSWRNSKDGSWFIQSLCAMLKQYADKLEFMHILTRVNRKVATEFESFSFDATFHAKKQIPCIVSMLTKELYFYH

[3] = target: cyclic AMP-dependent protein kinase (Homo sapiens, UniProt P17612); conditions: cited from earlier work
enterokinase = target: T2, enterokinase (Bos taurus, UniProt P98072); assay: Enterokinase assay with firefly luciferases having an internal enterokinase site; format: biochemical
T2 construct: purchased Invitrogen

caspase-3 [4] = target: T1, caspase-3; assay: Caspase-3 activation of circularly permuted firefly luciferase having a caspase-3 site; format: biochemical; conditions: TnT rabbit reticulocyte lysate

T2 sequence (P98072 801-1035 limits assumed): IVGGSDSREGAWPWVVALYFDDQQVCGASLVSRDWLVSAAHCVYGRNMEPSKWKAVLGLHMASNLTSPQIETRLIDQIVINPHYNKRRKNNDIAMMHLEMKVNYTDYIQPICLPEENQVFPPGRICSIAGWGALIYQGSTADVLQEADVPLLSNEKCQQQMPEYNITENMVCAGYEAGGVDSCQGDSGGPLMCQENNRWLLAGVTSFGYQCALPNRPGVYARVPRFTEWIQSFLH

## LRRASLG
[1]
  reduction of activity on addition of kinase catalytic subunit: 30%

## Ac-DEVD-CHO
caspase-3 [2]
  caspase-3 induced decrease of Cbg69DEVD luciferase activity in presence of caspase inhibitor: decrease in activity was not observed

## RRFS: Photinus pyralis luciferase, valine 217 mutated to arginine generating site RRFS (Sala-Newby et al.)
[3]
  decrease of activity when phosphorylated: up to 80%

B1: WT enzyme: parental (unmodified) firefly luciferase luc+ (protein)
chain: MEDAKNIKKGPAPFYPLEDGTAGEQLHKAMKRYALVPGTIAFTDAHIEVDITYAEYFEMSVRLAEAMKRYGLNTNHRIVVCSENSLQFFMPVLGALFIGVAVAPANDIYNERELLNSMGISQPTVVFVSKKGLQKILNVQKKLPIIQKIIIMDSKTDYQGFQSMYTFVTSHLPPGFNEYDFVPESFDRDKTIALIMNSSGSTGLPKGVALPHRTACVRFSHARDPIFGNQIIPDTAILSVVPFHHGFGMFTTLGYLICGFRVVLMYRFEEELFLRSLQDYKIQSALLVPTLFSFFAKSTLIDKYDLSNLHEIASGGAPLSKEVGEAVAKRFHLPGIRQGYGLTETTSAILITPEGDDKPGAVGKVVPFFEAKVVDLDTGKTLGVNQRGELCVRGPMIMSGYVNNPEATNALIDKDGWLHSGDIAYWDEDEHFFIVDRLKSLIKYKGYQVAPAELESILLQHPNIFDAGVAGLPDDDAGELPAAVVVLEHGKTMTEKEIVDYVASQVTTAKKLRGGVVFVDEVPKGLTGKLDARKIREILIKAKKGGKIAV
enterokinase
  effect of enterokinase on luciferase activity: no effect; also recorded: not affected; also recorded: not altered
enterokinase; 0 minutes, with 1 U EKMax
  luminescence reading (Turner 20/20 luminometer): 2561
enterokinase; 0 minutes, without EKMax
  luminescence reading (Turner 20/20 luminometer): 2517
enterokinase; 15 minutes, with 1 U EKMax
  luminescence reading (Turner 20/20 luminometer): 2905
enterokinase; 15 minutes, without EKMax
  luminescence reading (Turner 20/20 luminometer): 2855
enterokinase; 30 minutes, with 1 U EKMax
  luminescence reading (Turner 20/20 luminometer): 3190
enterokinase; 30 minutes, without EKMax
  luminescence reading (Turner 20/20 luminometer): 2987
caspase-3 [4]
  effect of caspase-3 on activity: not affected
